Measurements taken from article PMC12573921, “‘Mix-it-up’: accessible time-resolved cryo-EM on the millisecond timescale” (IUCrJ, 2025).

B1: Cowpea chlorotic mottle virus (CCMV) coat protein (natural protein)
chain: MSTVGTGKLTRAQRRAAARKNKRNTRVVQPVIVEPIASGQGKAIKAWTGYSVSKWTASCAAAEAKVTSAITISLPNELSSERNKQLKVGRVLLWLGLLPSVSGTVKSCVTETQTTAAASFQVALAVADNSKDVVAAMYPEAFKGITLEQLTADLTIYLYSSAALTEGDVIVHLEVEHVRPTFDDSFTPVY
notes: also called CCMV capsid; copies: 180
B2: E. coli GroES (natural protein, UniProt P0A6F9 1-97, looked up)
chain: MNIRPLHDRVIVKRKEVETKSAGGIVLTGSAAAKSTRGEVLAVGNGRILENGEVKPLDVKVGDIVIFNDGYGVKSEKIDNEEVLIMSESDILAIVEA
notes: GroES co-chaperonin of E. coli; purified as in Godek et al., 2024; source: T7 Express E. coli, Trc-promoted GroES/GroEL plasmid, purified (ion exchange, FFSP column at pH 4.6, Superdex 75); gift from the Steven Johnson laboratory

Legend:
[1] = target: the molecule itself; test: cryo-EM structure
[2] = target: the molecule itself; test: cryo-EM structure; 8.6 µM GroEL + 17.1 µM GroES on the grid, 83.3 mM ATP with gold fiducials sprayed with MIU, 300 ms

Row | Protein | binding result [1] | stoichiometry N [2]
1 | B1 | binds | 
2 | B2 |  | 7
